For test [1], the target named is HCV envelope glycoproteins E1 and E2 on HCV genotype 3a virus from patients' serum (Hepatitis C virus genotype 3a).
For test [2], the target named is HCV envelope glycoproteins E1 and E2 of genotype 3a on HCV pseudoparticles (Hepatitis C virus genotype 3a).

B1: Galanthus nivalis agglutinin (natural protein)
chain: SCLSDNILYSGETLSTGEFLNYGSFVFIMQEDCNLVLYDVDKPIWATNTGGLSRSCFLSMQTDGNLVVYNPSNKPIWASNTGGQNGNYVCILQKDRNVVIYGTDRWATG
In test [1], B1 had an infection of Huh-7 cells by HCV 3a virus pre-incubated with GNA, HCV RNA by quantitative RT-PCR, EC50 (Figure 4) of 1 µg and an infection of Huh-7 cells by HCV 3a virus pre-incubated with GNA, HCV RNA by quantitative RT-PCR, EC90 (Figure 4) of 5 µg. For the same molecule, the inhibition of HCVpp entry into Huh-7 cells, concentration of GNA for 50% reduction (Figure 3a and 3b) in test [2] is 1 µg.

The values are drawn from publication PMC3117843.
